{
  "source": "paper doi:10.1101/803361",
  "binders": {"B1": {"name": "Human heat shock transcription factor 1 (Hsf1), wild type, Q00613 1-529 (natural protein)", "chain": "MDLPVGPGAAGPSNVPAFLTKLWTLVSDPDTDALICWSPSGNSFHVFDQGQFAKEVLPKYFKHNNMASFVRQLNMYGFRKVVHIEQGGLVKPERDDTEFQHPCFLRGQEQLLENIKRKVTSVSTLKSEDIKIRQDSVTKLLTDVQLMKGKQECMDSKLLAMKHENEALWREVASLRQKHAQQQKVVNKLIQFLISLVQSNRILGVKRKIPLMLNDSGSAHSMPKYSRQFSLEHVHGSGPYSAPSPAYSSSSLYAPDAVASSGPIISDITELAPASPMASPGGSIDERPLSSSPLVRVKEEPPSPPQSPRVEEASPGRPSSVDTLLSPTALIDSILRESEPAPASVTALTDARGHTDTEGRPPSPPPTSTPEKCLSVACLDKNELSDHLDAMDSNLDNLQTMLSSHGFSVDTSALLDLFSPSVTVPDMSLPDLDSSLASIQELLSPQEPPRPPEAENSSPDSGKQLVHYTAQPLFLLDPGSVDTGSNDLPVLFELGEGSYFSEGDGFAEDPTISLLTGSEPPKAKDPTVS"}},
  "key": {"[1]": {"target": "T1, Human heat shock transcription factor 1 (Hsf1), wild type (human), Q00613", "T1 chain": "B1 chain", "experiment": "SEC + native gel or EMSA", "details": "remark: other sources report otherwise"}, "[2]": {"target": "T1, Human heat shock transcription factor 1 …", "experiment": "native gel or EMSA", "details": "remark: other sources report otherwise"}},
  "data": [
    {"binder": "B1", "values": [
      {"measurement": "stoichiometry N", "setting": "[1]", "result": 3},
      {"measurement": "stoichiometry N", "setting": "[2]", "result": "> 3"}
    ]}
  ]
}
